This note sets out measurements from publication PMC7537338, “CD47/SIRPα blocking peptide identification and synergistic effect with irradiation for cancer immunotherapy” (Journal for Immunotherapy of Cancer, 2020).

The target in experiment [1] is human CD47-IgV-Domain protein (human), Q08722. As to the kind of experiment: MST; human or mouse CD47-IgV-Domain protein labeled with NT-647, about 50 to 200 nM; unlabeled peptides or ligand protein diluted serially; 50 mM Tris, 150 mM NaCl, 10 mM MgCl2, 0.05% Tween-20, 0.5% DMSO, pH 7.5; 30 min at room temperature; 25°C.
Experiment [2] addresses T1, mouse CD47-IgV-Domain protein (mouse), Q61735.
T1 chain: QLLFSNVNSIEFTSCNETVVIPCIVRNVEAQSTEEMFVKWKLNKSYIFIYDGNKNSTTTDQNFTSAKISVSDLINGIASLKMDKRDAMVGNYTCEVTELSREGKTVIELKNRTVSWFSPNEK
The experiment is described as above.

The target in experiment [3] is human CD47-IgV-Domain-hIg fusion protein (human), Q08722. As to the kind of experiment: flow cytometry on cells; competition: CD47-IgV-Domain-hIg (20 nM) incubated with titrating concentrations of peptide in PBS pH 7.4 for 1 hour at 4°C, then on SIRPα-overexpressing CHO cells 30 min at 4°C; PE-conjugated goat anti-human IgG; IC50 from sigmoidal dose response curves. (A flow cytometer gives signals particle by particle.)

The target in experiment [4] is T2, mouse CD47-IgV-Domain-hIg fusion protein (mouse), Q61735.
T2 chain: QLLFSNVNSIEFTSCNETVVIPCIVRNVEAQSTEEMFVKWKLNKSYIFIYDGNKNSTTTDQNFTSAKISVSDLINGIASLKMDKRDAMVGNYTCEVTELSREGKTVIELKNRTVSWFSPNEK
The experiment is described as above.

Sequence of human CD47-IgV-Domain-hIg fusion protein (human), Q08722 (Q08722 19-141): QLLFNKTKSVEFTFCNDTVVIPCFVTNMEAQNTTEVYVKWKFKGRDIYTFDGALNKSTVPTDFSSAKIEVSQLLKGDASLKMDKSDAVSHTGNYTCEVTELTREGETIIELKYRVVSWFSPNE
Sequence of human CD47-IgV-Domain protein (human), Q08722 (Q08722 19-141): as above

For AWSATWSNYWRH (modifications not checked) [pep-20], the figures for the equilibrium dissociation constant (Kd) in experiment [1] and in experiment [2] were 2.91 µM and 3.63 µM, respectively. The concentration for half-maximal inhibition (IC50) (as a rule, the concentration at which inhibition is half-maximal) in experiment [3] turned out to be 24.6 µM; in experiment [4], 12 µM.
